{
  "source": "patent US20140038292",
  "system": "T1, Tol1 transposase (851 aa) (Oryzias latipes)",
  "T1 sequence": "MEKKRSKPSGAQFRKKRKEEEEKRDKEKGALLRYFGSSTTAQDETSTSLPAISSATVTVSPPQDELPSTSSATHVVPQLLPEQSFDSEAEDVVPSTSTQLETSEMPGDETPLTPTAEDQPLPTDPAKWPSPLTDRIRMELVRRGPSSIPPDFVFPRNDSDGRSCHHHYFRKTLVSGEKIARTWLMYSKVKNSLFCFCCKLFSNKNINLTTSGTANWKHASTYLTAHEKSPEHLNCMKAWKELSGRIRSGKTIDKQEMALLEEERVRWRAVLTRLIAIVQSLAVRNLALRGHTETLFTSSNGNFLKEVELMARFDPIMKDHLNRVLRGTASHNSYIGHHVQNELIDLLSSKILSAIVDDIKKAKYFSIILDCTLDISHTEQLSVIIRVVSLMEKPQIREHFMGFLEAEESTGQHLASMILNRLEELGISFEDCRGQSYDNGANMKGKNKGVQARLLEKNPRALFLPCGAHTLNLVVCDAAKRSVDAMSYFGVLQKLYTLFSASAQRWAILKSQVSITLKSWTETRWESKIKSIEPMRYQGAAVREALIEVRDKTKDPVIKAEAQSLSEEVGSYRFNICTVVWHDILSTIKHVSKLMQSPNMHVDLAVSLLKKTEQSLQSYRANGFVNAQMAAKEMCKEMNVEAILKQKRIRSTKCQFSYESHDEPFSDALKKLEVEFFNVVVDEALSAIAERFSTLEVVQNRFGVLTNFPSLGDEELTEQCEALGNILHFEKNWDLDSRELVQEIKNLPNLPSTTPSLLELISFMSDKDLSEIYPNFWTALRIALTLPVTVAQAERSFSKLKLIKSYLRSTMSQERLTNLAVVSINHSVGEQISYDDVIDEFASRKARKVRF",
  "assay": "cell_activity",
  "details": "HeLa, donor 200 ng, helper 800 ng; 8 bp TSD at insertions",
  "data": [
    {"substance": "Tol1-tyr element (1855 bp), donor plasmid", "values": [
      {"measurement": "activity (net G418-resistant colonies)", "value": 3660}
    ]}
  ]
}
